This is an account of results in US20200199241A1 (Chugai, published 2020).

The chains are these.
T1: human FcγRIIa type H (human, UniProt P12318 36-217)
T1 construct: also called FcγRIIaH; FcγRIIa(H)
T1 sequence: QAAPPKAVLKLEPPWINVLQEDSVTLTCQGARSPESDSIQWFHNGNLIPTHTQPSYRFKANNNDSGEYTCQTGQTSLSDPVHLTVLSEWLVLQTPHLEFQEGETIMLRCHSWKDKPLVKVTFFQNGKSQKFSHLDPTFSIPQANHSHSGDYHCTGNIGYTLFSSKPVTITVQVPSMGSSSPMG

T2: human FcγRIIb (human, UniProt P31994 43-217, limits assumed)
T2 construct: also called FcγIIB
T2 sequence: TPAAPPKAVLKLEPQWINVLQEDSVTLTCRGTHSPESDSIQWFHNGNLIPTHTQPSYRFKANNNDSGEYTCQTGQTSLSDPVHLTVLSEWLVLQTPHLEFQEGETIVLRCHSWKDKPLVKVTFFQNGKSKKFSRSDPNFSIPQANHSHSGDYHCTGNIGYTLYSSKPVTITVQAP

T3: human FcγRIIa type R (human, UniProt P12318 36-217)
T3 construct: also called FcγRIIaR; FcγRIIa(R)
T3 chain: T1 sequence with H133R

T4: FcγRIIa type H (human, UniProt P12318 36-217)
T4 construct: also called FcγRIIaH; FcγRIIH
T4 sequence: T1 sequence

T5: FcγRIIb (human, UniProt P31994 43-217, limits assumed)
T5 construct: also called FcgRIIb; FcγIIB
T5 sequence: T2 sequence

T6: FcγRIIa type R (human, UniProt P12318 36-217)
T6 construct: also called FcγRIIaR; FcgRIIaR
T6 chain: T1 sequence with H133R

B1: IL6R-BF648/IL6R-L (antibody, human IgG1)
heavy: not shown
light: DIQMTQSPSSLSASVGDRVTITCRASQDISSYLNWYQQKPGKAPKLLIYYTSRLHSGVPSRFSGSGSGTDFTFTISSLQPEDIATYYCQQGNTLPYTFGQGTKVEIK
notes: IL6R-B3 with P238D; also called P238D
B2: IL6R-B3/IL6R-L (antibody, human IgG1)
heavy: not shown
light: B1 light
notes: IL6R-G1d with K439E (EU numbering)
B3: IL6R-2B171/IL6R-L (antibody, human IgG1)
heavy: QVQLQESGPGLVKPSETLSLTCAVSGHSISHDHAWSWVRQPPGEGLEWIGFISYSGITNYNPSLQGRVTISRDNSKNTLYLQMNSLRAEDTAVYYCARSLARTTAMDYWGEGTLVTVSSASTKGPSVFPLAPSSKSTSGGTAALGCLVKDYFPEPVTVSWNSGALTSGVHTFPAVLQSSGLYSLSSVVTVPSSSLGTQTYICNVNHKPSNTKVDKKVEPKSCDKTHTCPPCPAPELLGGDSVFLFPPKPKDTLMISRTPEVTCVVVDVSHEDPEVKFNWYVDGVEVHNAKTKPREEQYNSTYRVVSVLTVLHQDWLNGKEYKCKLSNKALPAPIEKTISKAKGQPREPQVYTLPPSRDELTKNQVSLTCLVKGFYPSDIAVEWESNGQPENNYKTTPPVLDSDGSFFLYSKLTVDKSRWQQGNVFSCSVMHEALHNHYTQESLSLSP
light: B1 light
notes: Alteration introduced into IL6R-B3; also called P238D/V323L
B4: IL6R-BP119/IL6R-L (antibody, human IgG1)
heavy: B3 heavy with L325V, K328M
light: B1 light
notes: Alteration introduced into IL6R-B3; also called P238D/K326M
B5: IL6R-2B128/IL6R-L (antibody, human IgG1)
heavy: B3 heavy with Y298D, L325V
light: B1 light
notes: Alteration introduced into IL6R-B3; also called P238D/Y296D
B6: IL6R-BP100/IL6R-L (antibody, human IgG1)
heavy: B3 heavy with S269A, L325V
light: B1 light
notes: Alteration introduced into IL6R-B3; also called P238D/S267A
B7: IL6R-BP118/IL6R-L (antibody, human IgG1)
heavy: B3 heavy with L325V, K328S
light: B1 light
notes: Alteration introduced into IL6R-B3; also called P238D/K326S
B8: IL6R-BP121/IL6R-L (antibody, human IgG1)
heavy: B3 heavy with L325V, K328Q
light: B1 light
notes: Alteration introduced into IL6R-B3; also called P238D/K326Q
B9: IL6R-BP102/IL6R-L (antibody, human IgG1)
heavy: B3 heavy with S269Q, L325V
light: B1 light
notes: Alteration introduced into IL6R-B3; also called P238D/S267Q
B10: IL6R-2B172/IL6R-L (antibody, human IgG1)
heavy: B3 heavy with L325M
light: B1 light
notes: Alteration introduced into IL6R-B3; also called P238D/V323M
B11: IL6R-BP116/IL6R-L (antibody, human IgG1)
heavy: B3 heavy with L325V, K328T
light: B1 light
notes: Alteration introduced into IL6R-B3; also called P238D/K326T
B12: IL6R-BP912/IL6R-L (antibody, human IgG1)
heavy: B3 heavy with L325V, A332R
light: B1 light
notes: Alteration introduced into IL6R-B3; also called P238D/A330R
B13: IL6R-2B169/IL6R-L (antibody, human IgG1)
heavy: B3 heavy with L325I
light: B1 light
notes: Alteration introduced into IL6R-B3; also called P238D/V323I; 1L6R-2B169/IL6R-L
B14: IL6R-BP110/IL6R-L (antibody, human IgG1)
heavy: B3 heavy with H270N, L325V
light: B1 light
notes: Alteration introduced into IL6R-B3; also called P238D/H268N
B15: IL6R-BP103/IL6R-L (antibody, human IgG1)
heavy: B3 heavy with S269V, L325V
light: B1 light
notes: Alteration introduced into IL6R-B3; also called P238D/S267V
B16: IL6R-BP107/IL6R-L (antibody, human IgG1)
heavy: B3 heavy with H270E, L325V
light: B1 light
notes: Alteration introduced into IL6R-B3; also called P238D/H268E
B17: IL6R-BP078/IL6R-L (antibody, human IgG1)
heavy: B3 heavy with L325V, A332M
light: B1 light
notes: IgG1; Fc variant of IL6R-B3; copies: 2 + 2

Positions count from the first letter of the chain named. Names and notes keep the numbering of the source.

T8 sequence (P08637 other isoform, or with tags, fused parts or gaps limits assumed): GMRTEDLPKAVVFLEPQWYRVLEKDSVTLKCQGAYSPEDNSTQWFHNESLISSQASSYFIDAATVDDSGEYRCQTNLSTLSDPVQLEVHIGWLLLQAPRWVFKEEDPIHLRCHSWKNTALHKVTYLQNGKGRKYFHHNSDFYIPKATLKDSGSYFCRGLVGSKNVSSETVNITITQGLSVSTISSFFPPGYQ

The first experiment addresses T1, human FcγRIIa type H. Nature of the experiment: SPR (Biacore), binding amount relative to IL6R-BF648/IL6R-L = 100. For orientation: SPR reads the build-up and loss of mass on a sensor chip optically.
Turning to B1, the relative binding worked out at 100.

The molecule B2 yielded a relative binding of 1600.

In turn, B3 came in with a relative binding of 115.

B4 yielded a relative binding of 133.

In the case of B5, the relative binding came to 37.

For B6, the relative binding worked out at 128.

B7 returned a relative binding of 128.

In turn, B8 displayed a relative binding of 135.

In turn, B9 gave a relative binding of 66.

As to B10, the relative binding is 179.

The molecule B11 registered a relative binding of 110.

B12 yielded a relative binding of 93.

In turn, B13 showed a relative binding of 83.

As to B14, the relative binding came out at 127.

On to B15, for which the relative binding came to 69.

In the next experiment the target is T2, human FcγRIIb. The description is as above.
Turning to B1, the relative binding came to 100.

Molecule B2 came in with a relative binding of 58.

B3 had a relative binding of 113.

B4 yielded a relative binding of 110.

B5 came in with a relative binding of 103.

B6 registered a relative binding of 110.

The molecule B7 registered a relative binding of 104.

B8 came in with a relative binding of 113.

Molecule B9 yielded a relative binding of 106.

B10 registered a relative binding of 132.

B11 displayed a relative binding of 108.

In the case of B12, the relative binding turned out to be 103.

Turning to B13, the relative binding came out at 104.

B14 returned a relative binding of 101.

For B16, the relative binding is 118.

B15: the relative binding is 107.

For a further experiment, the target named is T7, human FcγRIa (human, UniProt P12314 16-292, limits assumed).
T7 construct: also called CD64
T7 sequence (P12314 16-292 limits assumed): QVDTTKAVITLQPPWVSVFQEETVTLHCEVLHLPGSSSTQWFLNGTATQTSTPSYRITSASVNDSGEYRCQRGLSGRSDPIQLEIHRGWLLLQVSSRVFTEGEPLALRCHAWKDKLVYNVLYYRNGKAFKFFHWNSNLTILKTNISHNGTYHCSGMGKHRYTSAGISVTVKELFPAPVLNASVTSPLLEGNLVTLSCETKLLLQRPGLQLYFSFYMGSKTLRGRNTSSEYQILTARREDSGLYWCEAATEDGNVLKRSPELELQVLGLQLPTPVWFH
The description is as above.
For B1, the relative binding worked out at 100.

The molecule B2 came in with a relative binding of 145.

B3 came in with a relative binding of 116.

Turning to B4, the relative binding amounted to 117.

As for B5, the relative binding worked out at 95.

On to B6, for which the relative binding is 121.

B7 came in with a relative binding of 101.

The molecule B8 yielded a relative binding of 118.

Turning to B9, the relative binding was determined as 104.

As to B10, the relative binding worked out at 140.

Molecule B11 yielded a relative binding of 110.

B12 registered a relative binding of 60.

In turn, B13 registered a relative binding of 73.

B14 yielded a relative binding of 105.

The molecule B16 displayed a relative binding of 123.

Turning to B15, the relative binding was 56.

For the next experiment, the target named is T3, human FcγRIIa type R. The description is as above.
In turn, B1 returned a relative binding of 100.

As for B2, the relative binding is 625.

In turn, B3 gave a relative binding of 117.

For the molecule B4, the relative binding came out at 181.

On to B5, for which the relative binding came out at 87.

For B6, the relative binding worked out at 197.

Turning to B7, the relative binding stood at 132.

On to B8, for which the relative binding was 155.

In turn, B9 returned a relative binding of 165.

As to B10, the relative binding came out at 244.

Molecule B11 had a relative binding of 126.

Turning to B12, the relative binding was 81.

Consider B14, for which the relative binding amounted to 128.

The molecule B16 displayed a relative binding of 147.

In turn, B15 gave a relative binding of 163.

A further experiment has as its target T8, human FcγRIIIa type V (human, UniProt P08637 17-208, limits assumed).
T8 construct: also called FcγRIIIaV; FcγRIIIa(V)
The experiment is described as above.
Molecule B1 returned a relative binding of 100.

Consider B2, for which the relative binding worked out at 3260.

On to B3, for which the relative binding was found to be 122.

As to B4, the relative binding was determined as 145.

Consider B5, for which the relative binding was found to be 96.

Molecule B6 returned a relative binding of 138.

Molecule B7 came in with a relative binding of 144.

For the molecule B8, the relative binding stood at 157.

For B9, the relative binding was found to be 86.

B10 returned a relative binding of 144.

Molecule B11 showed a relative binding of 114.

B12 gave a relative binding of 97.

B13 had a relative binding of 94.

B14 came in with a relative binding of 127.

B16 returned a relative binding of 129.

B15 yielded a relative binding of 77.

The target in the next experiment is T4, FcγRIIa type H. In words: SPR (Biacore), FcγR over captured antibody.
One may read the Kd as the free concentration of one partner at which half of the binding sites on the other are occupied at equilibrium, for simple one-to-one binding. A low value points to higher affinity. Take B17: the Kd worked out at 45 µM.

For another experiment, the target named is T9, FcγRIIIa type V (human, UniProt P08637 17-208, limits assumed).
T9 construct: also called FcγRIIIaV; FcgRIIIaV
T9 sequence (P08637 other isoform, or with tags, fused parts or gaps limits assumed): as the sequence (P08637 other isoform, or with tags, fused parts or gaps limits assumed) above
Nature of the experiment: SPR (Biacore), FcγR over captured antibody.
B17 displayed a Kd of 78 µM.

The target in another experiment is T5, FcγRIIb. Nature of the experiment: SPR (Biacore), FcγR over captured antibody.
The molecule B17 showed a Kd of 1.1 µM.

For the next experiment, the target named is T6, FcγRIIa type R. Nature of the experiment: SPR (Biacore), FcγR over captured antibody.
As for B17, the affinity, expressed as Kd, was 15 µM.

A further experiment deals with T10, FcγRIa (human, UniProt P12314 16-292, limits assumed).
T10 construct: also called FcgRIa; CD64
T10 sequence (P12314 16-292 limits assumed): as the sequence (P12314 16-292 limits assumed) above
In words: SPR (Biacore), FcγR over captured antibody.
Take B17: binding was put at a Kd of 0.0082 µM.
